Experiments:
Human VSIG4-L-Fc [1] = target: T1, Human VSIG4-L-Fc (human); test: BLI cross-blocking on hVSIG4-L-Fc, competitor 12A12 first
T1 construct: also called hVSIG4-L-Fc; hVSIG4-L

Human VSIG4-L-His = target: T2, Human VSIG4-L-His (human, UniProt Q9Y279 20-283); test: BLI, IgG on AHC sensor, antigen 100 nM
T2 construct: long isoform ECD with His tag; also called hVSIG4-L
T2 sequence: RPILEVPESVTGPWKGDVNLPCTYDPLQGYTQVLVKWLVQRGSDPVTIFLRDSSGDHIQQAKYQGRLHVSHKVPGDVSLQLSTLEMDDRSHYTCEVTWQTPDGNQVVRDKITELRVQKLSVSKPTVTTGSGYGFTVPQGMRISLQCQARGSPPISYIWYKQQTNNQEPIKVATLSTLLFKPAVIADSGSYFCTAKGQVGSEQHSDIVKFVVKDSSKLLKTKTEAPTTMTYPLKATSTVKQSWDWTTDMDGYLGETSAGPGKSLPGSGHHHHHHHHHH
Experimental: (§1) The binding affinity of chimeric antibodies was determined by biolayer interferometry (BLI), using a ForteBio Octet® Red384 system. […] Biosensors were rehydrated prior to the assay in kinetics buffer for 10 minutes and then equilibrated in kinetics buffer for 60 seconds. Antibody was then immobilized for 300 seconds followed by a 120 second baseline wash in fresh kinetics buffer, 300 second analyte association, and 300 second dissociation in the same buffer wells as the baseline wash step. All assay steps occurred at 30° C. with an acquisition rate of 5.0 Hz
(§2) The binding affinity of humanized antibodies and the parental chimeric antibodies was determined by biolayer interferometry (BLI), using a ForteBio Octet® Red384 system, as described above.

[2] = target: T3, Cynomolgus Monkey VSIG4-L-His (cynomolgus monkey); test: BLI, IgG on AHC sensor, antigen 100 nM
T3 construct: ECD with His tag; also called cyVSIG4-L; cyno VSIG4-L-His
T3 chain: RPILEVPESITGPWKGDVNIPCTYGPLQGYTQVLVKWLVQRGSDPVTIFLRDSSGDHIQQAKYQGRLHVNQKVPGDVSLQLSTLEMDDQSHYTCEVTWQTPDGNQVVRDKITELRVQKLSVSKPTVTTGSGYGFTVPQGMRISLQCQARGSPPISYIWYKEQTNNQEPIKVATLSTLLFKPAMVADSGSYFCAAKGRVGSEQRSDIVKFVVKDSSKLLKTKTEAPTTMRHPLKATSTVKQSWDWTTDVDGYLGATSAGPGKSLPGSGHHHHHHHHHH
Experimental: as §1, §2

Human VSIG4-L-Fc [3] = target: T1, Human VSIG4-L-Fc; test: BLI binning on hVSIG4-L-Fc, competitor 15A06 first;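 also: normalized to binding of second antibody without first competitor antibody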
Target sequence in this assay (chain, as listed by the source limits assumed): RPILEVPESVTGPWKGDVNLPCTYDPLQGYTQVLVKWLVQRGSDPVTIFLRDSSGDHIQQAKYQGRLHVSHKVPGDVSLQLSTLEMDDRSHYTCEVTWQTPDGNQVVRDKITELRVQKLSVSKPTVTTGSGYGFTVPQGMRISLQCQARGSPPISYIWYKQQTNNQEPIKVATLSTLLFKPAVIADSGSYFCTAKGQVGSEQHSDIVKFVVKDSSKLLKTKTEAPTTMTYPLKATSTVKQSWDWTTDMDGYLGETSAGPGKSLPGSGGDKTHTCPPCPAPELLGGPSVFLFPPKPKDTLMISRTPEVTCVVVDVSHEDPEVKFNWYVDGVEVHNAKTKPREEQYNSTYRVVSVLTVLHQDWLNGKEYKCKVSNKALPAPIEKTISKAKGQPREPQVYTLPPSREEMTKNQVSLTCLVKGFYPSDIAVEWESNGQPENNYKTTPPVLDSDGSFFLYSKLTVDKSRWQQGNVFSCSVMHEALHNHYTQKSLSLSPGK

Human VSIG4-L-Fc [4] = target: T1, Human VSIG4-L-Fc; test: BLI binning on hVSIG4-L-Fc, competitor 14C05 first;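 also: normalized to binding of second antibody without first competitor antibody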
[5] = target: T3, Cynomolgus Monkey VSIG4-L-His; test: ELISA, IgG 50 nM on coated antigen;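 also: Mouse-human chimeric IgG4 antibodies incubated 1 h on plate-coated VSIG4 proteins, bound IgG detected with HRP-labelled anti-human IgG, irrelevant antibody and protein as specificity controls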
Mouse VSIG4-His = target: T4, Mouse VSIG4-His (mouse); test: ELISA, IgG 50 nM on coated antigen;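 also: Mouse-human chimeric IgG4 antibodies incubated 1 h on plate-coated VSIG4 proteins, bound IgG detected with HRP-labelled anti-human IgG, irrelevant antibody and protein as specificity controls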
T4 construct: ECD with His tag; also called mVSIG4
T4 chain: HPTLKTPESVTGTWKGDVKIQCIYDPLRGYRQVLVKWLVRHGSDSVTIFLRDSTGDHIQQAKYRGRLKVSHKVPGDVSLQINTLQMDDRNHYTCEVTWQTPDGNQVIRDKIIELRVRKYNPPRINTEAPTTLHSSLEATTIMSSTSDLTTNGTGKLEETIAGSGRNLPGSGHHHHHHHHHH

Human VSIG4-L-Fc [6] = target: T1, Human VSIG4-L-Fc; test: ELISA, IgG 50 nM on coated antigen;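 also: Mouse-human chimeric IgG4 antibodies incubated 1 h on plate-coated VSIG4 proteins, bound IgG detected with HRP-labelled anti-human IgG, irrelevant antibody and protein as specificity controls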
Human VSIG4-S-Fc = target: T5, Human VSIG4-S-Fc (human); test: ELISA, IgG 50 nM on coated antigen;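 also: Mouse-human chimeric IgG4 antibodies incubated 1 h on plate-coated VSIG4 proteins, bound IgG detected with HRP-labelled anti-human IgG, irrelevant antibody and protein as specificity controls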
T5 construct: short isoform ECD fused to human Fc1; also called hVSIG4-S
T5 sequence (chain, as listed by the source limits assumed): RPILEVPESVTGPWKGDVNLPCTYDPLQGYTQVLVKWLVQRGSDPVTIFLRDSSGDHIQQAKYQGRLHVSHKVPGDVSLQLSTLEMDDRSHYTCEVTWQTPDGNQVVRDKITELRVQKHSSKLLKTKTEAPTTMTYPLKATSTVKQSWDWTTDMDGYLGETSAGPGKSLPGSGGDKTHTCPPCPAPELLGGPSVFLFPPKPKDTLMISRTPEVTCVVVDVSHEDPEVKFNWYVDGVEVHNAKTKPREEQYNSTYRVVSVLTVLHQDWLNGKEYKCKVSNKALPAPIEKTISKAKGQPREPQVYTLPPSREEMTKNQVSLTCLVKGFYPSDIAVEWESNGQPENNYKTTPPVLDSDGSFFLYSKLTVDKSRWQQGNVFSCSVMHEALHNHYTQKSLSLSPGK

B1: 12A12 mouse/human chimeric IgG4 (S228P) kappa (antibody, V domains shown)
VH: QVQMKQSGAELAKPGASVKMSCKASGYTFTNYWMHWVKQRPGQGLEWIGYINPSTGYTDYNQNFKDRATLTADKSSSTAYMQLSSLTSEDSAVYYCIRGSDYYGRDYWGQGTTLTVSS
VL: DIQMTQTTSSLSASLGDRVTISCRASQDISNYLNWYQQKPDGTLKLLIYYTSRLHSGVPSRFSGSGSGTDYSLTISNLEQEDIATYFCRQGNTLPWTFGGGTKLEIKR
binding signal (nm shift) (Human VSIG4-L-Fc [1]): 0.13 nm
KD relative to parental chimera (Human VSIG4-L-His): 1 fold
KD relative to parental chimera [2]: 1 fold
normalized maximum binding nm shift (Human VSIG4-L-Fc [3]): 0.77 normalized
normalized maximum binding nm shift (Human VSIG4-L-Fc [4]): 0.72 normalized
ELISA OD450 [5]: 4.4 OD450
ELISA OD450 (Mouse VSIG4-His): 0.054 OD450
ELISA OD450 (Human VSIG4-L-Fc [6]): 4.45 OD450
ELISA OD450 (Human VSIG4-S-Fc): 4.18 OD450
